The source of these data is paper PMC9201945 (Frontiers in Molecular Neuroscience, 2022).

The target in series [1] is GFP-PICK1 BAR domain. The experiment in a line: cross-linking; HEK293 cells in 2 ml PBS with 0.3 mM DSS for 20 min at room temperature, quenched with 50 mM Tris, lysed, Western blot (anti-GFP or anti-PICK1); for untagged PICK1 after 5 min with 3 μM ionomycin and a range of extracellular CaCl2. (In general: A western blot detects proteins with antibodies after separation by electrophoresis.)

Series [2] concerns the molecule itself. The description is as above.
Series [3] concerns the molecule itself. The experiment in a line: cross-linking; 100 nM purified his6 protein in 150 mM NaCl, 20 mM HEPES pH 7.4, 5 mM HEDTA, CaCl2 to give [Ca2+]free of 0, 2, 5, 12, 26 μM; 10 μM DSS for 20 min at room temperature, quenched with 50 mM Tris; Western blot with anti-PICK1.

“GFP-PICK1 BAR domain (domain or fragment)” displayed a stoichiometry N in series [1] of 2.

B1: Amphiphysin2-GFP (natural protein, UniProt O00499 1-593, looked up)
chain: MAEMGSKGVTAGKIASNVQKKLTRAQEKVLQKLGKADETKDEQFEQCVQNFNKQLTEGTRLQKDLRTYLASVKAMHEASKKLNECLQEVYEPDWPGRDEANKIAENNDLLWMDYHQKLVDQALLTMDTYLGQFPDIKSRIAKRGRKLVDYDSARHHYESLQTAKKKDEAKIAKPVSLLEKAAPQWCQGKLQAHLVAQTNLLRNQAEEELIKAQKVFEEMNVDLQEELPSLWNSRVGFYVNTFQSIAGLEENFHKEMSKLNQNLNDVLVGLEKQHGSNTFTVKAQPSDNAPAKGNKSPSPPDGSPAATPEIRVNHEPEPAGGATPGATLPKSPSQLRKGPPVPPPPKHTPSKEVKQEQILSLFEDTFVPEISVTTPSQFEAPGPFSEQASLLDLDFDPLPPVTSPVKAPTPSGQSIPWDLWEPTESPAGSLPSGEPSAAEGTFAVSWPSQTAEPGPAQPAEASEVAGGTQPAAGAQEPGETAASEAASSSLPAVVVETFPATVNGTVEGGSGAGRLDLPPGFMFKVQAQHDYTATDTDELQLKAGDVVLVIPFQNPEEQDEGWLMGVKESDWNQHKELEKCRGVFPENFTERVP
notes: Amphiphysin 2, BAR domain protein; plasmid a gift from Dr. Emmanuel Boucrot; Called Amphiphysin2-GFP in the methods and ^GFPAmphiphysin in the results and the legend; also called ^GFPAmphiphysin; ^GFPamphiphysin; source: HEK293, transfected, cross-linked in cells, in lysate
Regarding B1, the “stoichiometry N” value in series [2] turned out to be 2.

B2: his6ΔNT-PICK1 (natural protein, UniProt Q9EP80 1-416, looked up)
chain: MFAKLGIPTVPGKVTLQKDAQNLIGISIGGGAQYCPCLYIVQVFDNTPAALDGTVAAGDEITGVNGRSIKGKTKVEVAKMIQEVKGEVTIHYNKLQADPKQGMSLDIVLKKVKHRLVENMSSGTADALGLSRAILCNDGLVKRLEELERTAELYKGMTEHTKNLLRAFYELSQTHRAFGDVFSVIGVREPQPAASEAFVKFADAHRSIEKFGIRLLKTIKPMLTDLNTYLNKAIPDTRLTIKKYLDVKFEYLSYCLKVKEMDDEEYSCIALGEPLYRVSTGNYEYRLILRCRQEARARFSQMRKDVLEKMELLDQKHVQDIVFQLQRFVSTMSKYYNDCYAVLRDADVFPIEVDLAHTTLAYGPNQGGFTDGEDEEEEEEDGAAREVSKDARGATGPTDKGGSWCDS
notes: source: E. coli BL21(DE3), pET28, purified (Ni-NTA)
Regarding B2, the “stoichiometry N” value in series [3] was determined as 2.

B3: his64A-PICK1 (natural protein, UniProt Q9EP80 1-416, looked up)
chain: MFADLDYDIEEDKLGIPTVPGKVTLQKDAQNLIGISIGGGAQYCPCLYIVQVFDNTPAALDGTVAAGDEITGVNGRSIKGKTKVEVAKMIQEVKGEVTIHYNKLQADPKQGMSLDIVLKKVKHRLVENMSSGTADALGLSRAILCNDGLVKRLEELERTAELYKGMTEHTKNLLRAFYELSQTHRAFGDVFSVIGVREPQPAASEAFVKFADAHRSIEKFGIRLLKTIKPMLTDLNTYLNKAIPDTRLTIKKYLDVKFEYLSYCLKVKEMAAAAYSCIALGEPLYRVSTGNYEYRLILRCRQEARARFSQMRKDVLEKMELLDQKHVQDIVFQLQRFVSTMSKYYNDCYAVLRDADVFPIEVDLAHTTLAYGPNQGGFTDGEDEEEEEEDGAAREVSKDARGATGPTDKGGSWCDS
notes: PICK1 with residues 271DDEE274 in the BAR domain substituted by alanines; source: E. coli BL21(DE3), pET28, purified (Ni-NTA)
As for B3, the “stoichiometry N” value in series [3] came to 2.

B4: GFP-Endophilin A1 (natural protein, UniProt Q99962 1-352, looked up)
chain: MSVAGLKKQFHKATQKVSEKVGGAEGTKLDDDFKEMERKVDVTSRAVMEIMTKTIEYLQPNPASRAKLSMINTMSKIRGQEKGPGYPQAEALLAEAMLKFGRELGDDCNFGPALGEVGEAMRELSEVKDSLDIEVKQNFIDPLQNLHDKDLREIQHHLKKLEGRRLDFDYKKKRQGKIPDEELRQALEKFDESKEIAESSMFNLLEMDIEQVSQLSALVQAQLEYHKQAVQILQQVTVRLEERIRQASSQPRREYQPKPRMSLEFPTGDSTQPNGGLSHTGTPKPSGVQMDQPCCRALYDFEPENEGELGFKEGDIITLTNQIDENWYEGMLHGHSGFFPINYVEILVALPH
notes: Endophilin A1, BAR domain protein; plasmid a gift from Dr. Ira Milosevic; The methods name only one 'GFP-endophilin'; source: HEK293, transfected, cross-linked in cells, in lysate
Take B4: the “stoichiometry N” value in series [2] is 2.

For orientation: stoichiometry N means the number of molecules, sites or subunits per partner or assembly.
